In experiment [1] the target is T1, PSMA Fab (006 PSMA Fab).
T1 construct: also called Anti-PSMA Fab
Description: phage ELISA on captured PSMA Fab pre-incubated with the competitor PSMA antigen, anti-M13-HRP detection. (In general: ELISA stands for enzyme-linked immunosorbent assay.)
Description: (§1) Clonal phage were harvested as crude supernatants and screened via standard ELISAs. […] Prior to the addition of clonal phage. wells were incubated with blocking buffer and PSMA antigen or blocking buffer alone. Without washing or aspirating, clonal phage supernatants were then added to the wells and incubated for a short time. Wells were then washed followed by detection of bound phage using a horse radish conjugated anti-M13 antibody.

Experiment [2] deals with T1, PSMA Fab (006 PSMA Fab). Description: clonal phage supernatant on biotinylated PSMA Fab captured on neutravidin plate, anti-M13-HRP detection.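 Further: before phage were added, wells received PSMA antigen in blocking buffer or blocking buffer alone, with no wash in between, followed by a short phage incubation.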
Description: as §1
Experiment [3] has as its target T2, 006 PSMA Fab (biotinylated (site not stated)).
T2 construct: also called Anti-PSMA Fab
Briefly: clonal phage ELISA; biotinylated PSMA Fab on neutravidin plate, blocking buffer alone, anti-M13-HRP detection.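 Further: crude clonal phage supernatants added without washing to wells preincubated with PSMA antigen or with blocking buffer alone, briefly incubated, then washed before bound phage detection.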

In experiment [4] the target is T2, 006 PSMA Fab. Description: clonal phage ELISA; biotinylated PSMA Fab on neutravidin plate pre-incubated with PSMA antigen as competitor, anti-M13-HRP detection.
Description: as §1
Experiment [5] addresses T3, PSMA Fab (006 PSMA Fab).
T3 construct: also called Anti-PSMA Fab; anti-PSMA Fab
Briefly: phage binding ELISA; biotinylated PSMA Fab on neutravidin plate, clonal phage supernatant, anti-M13 HRP detection.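 Further: wells were preincubated with blocking buffer either containing PSMA antigen or without it before crude phage supernatant was added, briefly incubated, then washed prior to detection.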
Description: as §1

The record followed here is patent publication US20260242478A1 (published 2026).

For the molecule YQMLCVPEWMCSGL [Phage-3915], the “phage binding ELISA signal, Anti-PSMA Fab in the presence of PSMA” value in the experiment with PSMA Fab (006 PSMA Fab) [1] amounted to 0.0874. Further, the “Phage binding ELISA signal, Anti-PSMA Fab” value in the experiment with PSMA Fab (006 PSMA Fab) [2] was found to be 1.02.

B1: Phage-3888 (peptide)
peptide: LQIRCQPVWMCHGF
notes: tested as crude clonal phage supernatant
Consider B1, for which the “Phage binding ELISA signal, Anti-PSMA Fab” value with 006 PSMA Fab [3] turned out to be 1.1. Further, in the experiment with 006 PSMA Fab [4], the “Phage binding ELISA signal, Anti-PSMA Fab in the presence of PSMA antigen” value (“Phage binding ELISA signal … of PSMA antigen” for short) worked out at 0.0801.

As to AQVLCVPNWMCTGF [Phage-3920], in the experiment with PSMA Fab (006 PSMA Fab) [1], the “phage binding ELISA signal, Anti-PSMA Fab in the presence of PSMA” value came out at 0.0618. The “Phage binding ELISA signal, Anti-PSMA Fab” value in the experiment with PSMA Fab (006 PSMA Fab) [2] worked out at 0.985.

As to ATVRCMPMWMCHGF [Phage-3912], the “phage binding ELISA signal, Anti-PSMA Fab in the presence of PSMA” value in the experiment with PSMA Fab (006 PSMA Fab) [1] amounted to 0.0901. Further, the “Phage binding ELISA signal, Anti-PSMA Fab” value with PSMA Fab (006 PSMA Fab) [2] amounted to 1.03.

B2: Phage-3928 (Peptide-180 library clone) (peptide)
peptide: WDLLCSPPWMCAGM
notes: Tested as clonal phage supernatant; not shown: fused to the pIII filament protein of the bacteriophage
On to B2, for which the “Phage binding ELISA signal, Anti-PSMA Fab” value with PSMA Fab (006 PSMA Fab) [5] was found to be 0.971.

B3: Phage-3926 (Peptide-180 library clone) (peptide)
peptide: VERFCEPAWMCIGL
notes: as for B2
Regarding B3, the “Phage binding ELISA signal, Anti-PSMA Fab” value with PSMA Fab (006 PSMA Fab) [5] was 0.972.

B4: Phage-3929 (Peptide-180 library clone) (peptide)
peptide: TWSICEPRWMCEGF
notes: as for B2
For B4, in the experiment with PSMA Fab (006 PSMA Fab) [5], the “Phage binding ELISA signal, Anti-PSMA Fab” value was found to be 0.97.

B5: Phage-3925 (Peptide-180 library clone) (peptide)
peptide: NERFCEPAWMCHGF
notes: as for B2
Turning to B5, the “Phage binding ELISA signal, Anti-PSMA Fab” value with PSMA Fab (006 PSMA Fab) [5] is 0.977.

Take GAYTCVPAWMCQGF [Phage-3922]: the “phage binding ELISA signal, Anti-PSMA Fab in the presence of PSMA” value with PSMA Fab (006 PSMA Fab) [1] worked out at 0.0665. In the experiment with PSMA Fab (006 PSMA Fab) [2], the “Phage binding ELISA signal, Anti-PSMA Fab” value was 0.979.

B6: Phage-3896 (peptide)
peptide: PDVHCVPRWMCDGL
notes: as for B1
As to B6, in the experiment with 006 PSMA Fab [3], the “Phage binding ELISA signal, Anti-PSMA Fab” value amounted to 1.08. Moreover, in the experiment with 006 PSMA Fab [4], the “Phage binding ELISA signal … of PSMA antigen” value was found to be 0.0633.

B7: Phage-3884 (peptide)
peptide: TEPACVPPWMCVGW
notes: as for B1
For B7, in the experiment with 006 PSMA Fab [3], the “Phage binding ELISA signal, Anti-PSMA Fab” value came out at 1.12. Besides, the “Phage binding ELISA signal … of PSMA antigen” value with 006 PSMA Fab [4] was found to be 0.128.

In the case of GQIMCIPTWMCSGF [Phage-3921], the “phage binding ELISA signal, Anti-PSMA Fab in the presence of PSMA” value in the experiment with PSMA Fab (006 PSMA Fab) [1] was 0.0809. For the same molecule, in the experiment with PSMA Fab (006 PSMA Fab) [2], the “Phage binding ELISA signal, Anti-PSMA Fab” value was 0.98.

Turning to ESRACVPNWMCHGL [Phage-3911], the “phage binding ELISA signal, Anti-PSMA Fab in the presence of PSMA” value with PSMA Fab (006 PSMA Fab) [1] came to 0.06. Also, in the experiment with PSMA Fab (006 PSMA Fab) [2], the “Phage binding ELISA signal, Anti-PSMA Fab” value came out at 1.03.

B8: Phage-3889 (peptide)
peptide: IDTLCVPWWMCSGF
notes: as for B1
Regarding B8, in the experiment with 006 PSMA Fab [3], the “Phage binding ELISA signal, Anti-PSMA Fab” value stood at 1.1. In addition, the “Phage binding ELISA signal … of PSMA antigen” value with 006 PSMA Fab [4] was determined as 0.0774.

B9: Phage-3894 (peptide)
peptide: DLQMCLPKWMCVGF
notes: as for B1
For B9, the “Phage binding ELISA signal, Anti-PSMA Fab” value with 006 PSMA Fab [3] turned out to be 1.09. For the same molecule, in the experiment with 006 PSMA Fab [4], the “Phage binding ELISA signal … of PSMA antigen” value came out at 0.0639.

Regarding MSPMCSPSWMCMGF [Phage-3919], the “phage binding ELISA signal, Anti-PSMA Fab in the presence of PSMA” value with PSMA Fab (006 PSMA Fab) [1] came out at 0.0911. In addition, the “Phage binding ELISA signal, Anti-PSMA Fab” value with PSMA Fab (006 PSMA Fab) [2] amounted to 0.993.

B10: Phage-3895 (peptide)
peptide: EWIMCTPPWMCHGF
notes: as for B1
As to B10, the “Phage binding ELISA signal, Anti-PSMA Fab” value with 006 PSMA Fab [3] was 1.09. Further, in the experiment with 006 PSMA Fab [4], the “Phage binding ELISA signal … of PSMA antigen” value amounted to 0.0638.

B11: Phage-3890 (peptide)
peptide: DQHACRPEWMCVGF
notes: as for B1
For the molecule B11, the “Phage binding ELISA signal, Anti-PSMA Fab” value with 006 PSMA Fab [3] worked out at 1.1. Besides, the “Phage binding ELISA signal … of PSMA antigen” value in the experiment with 006 PSMA Fab [4] was determined as 0.0789.

B12: Phage-3886 (peptide)
peptide: TEHQCVPAWMCGGF
notes: as for B1
Consider B12, for which the “Phage binding ELISA signal, Anti-PSMA Fab” value with 006 PSMA Fab [3] was determined as 1.11. Moreover, in the experiment with 006 PSMA Fab [4], the “Phage binding ELISA signal … of PSMA antigen” value is 0.0809.

B13: Phage-3927 (Peptide-180 library clone) (peptide)
peptide: SMQKCVPSWMCAGF
notes: as for B2
B13: the “Phage binding ELISA signal, Anti-PSMA Fab” value in the experiment with PSMA Fab (006 PSMA Fab) [5] was 0.972.

Turning to YNQYCTPLWMCEGF [Phage-3924], the “phage binding ELISA signal, Anti-PSMA Fab in the presence of PSMA” value with PSMA Fab (006 PSMA Fab) [1] was found to be 0.0796. For the same molecule, in the experiment with PSMA Fab (006 PSMA Fab) [2], the “Phage binding ELISA signal, Anti-PSMA Fab” value was determined as 0.977.

B14: Phage-3891 (peptide)
peptide: VVYTCVPSWMCTGL
notes: as for B1
Turning to B14, the “Phage binding ELISA signal, Anti-PSMA Fab” value with 006 PSMA Fab [3] was 1.1. Further, the “Phage binding ELISA signal … of PSMA antigen” value with 006 PSMA Fab [4] came to 0.062.

B15: Phage-3930 (Peptide-180 library clone) (peptide)
peptide: QLLRCVPPWMCEGF
notes: as for B2
For the molecule B15, the “Phage binding ELISA signal, Anti-PSMA Fab” value with PSMA Fab (006 PSMA Fab) [5] was found to be 0.97.

B16: Phage-3893 (peptide)
peptide: LVPRCLPEWMCTGF
notes: as for B1
For B16, the “Phage binding ELISA signal, Anti-PSMA Fab” value with 006 PSMA Fab [3] stood at 1.09. In the experiment with 006 PSMA Fab [4], the “Phage binding ELISA signal … of PSMA antigen” value is 0.0848.

B17: Phage-3885 (peptide)
peptide: GMVRCVPDWMCYGF
notes: as for B1
As for B17, in the experiment with 006 PSMA Fab [3], the “Phage binding ELISA signal, Anti-PSMA Fab” value was 1.11. Also, the “Phage binding ELISA signal … of PSMA antigen” value in the experiment with 006 PSMA Fab [4] stood at 0.0613.

B18: Phage-3892 (peptide)
peptide: DYWYCQPAWMCTGL
notes: as for B1
In the case of B18, in the experiment with 006 PSMA Fab [3], the “Phage binding ELISA signal, Anti-PSMA Fab” value is 1.1. Also, the “Phage binding ELISA signal … of PSMA antigen” value with 006 PSMA Fab [4] was 0.0585.

B19: Phage-3887 (peptide)
peptide: ILRHCTPEWMCIGL
notes: as for B1
For the molecule B19, the “Phage binding ELISA signal, Anti-PSMA Fab” value with 006 PSMA Fab [3] was 1.11. Besides, in the experiment with 006 PSMA Fab [4], the “Phage binding ELISA signal … of PSMA antigen” value stood at 0.0689.

B20: Phage-3897 (peptide)
peptide: LTLKCAPAWMCNGF
notes: as for B1
Take B20: the “Phage binding ELISA signal, Anti-PSMA Fab” value with 006 PSMA Fab [3] was found to be 1.08. Moreover, the “Phage binding ELISA signal … of PSMA antigen” value with 006 PSMA Fab [4] worked out at 0.0619.

On to AQKLCEPMWMCVGF [Phage-3918], for which the “phage binding ELISA signal, Anti-PSMA Fab in the presence of PSMA” value with PSMA Fab (006 PSMA Fab) [1] is 0.064. The “Phage binding ELISA signal, Anti-PSMA Fab” value in the experiment with PSMA Fab (006 PSMA Fab) [2] turned out to be 1.

Take FGVKCEPRWMCNGF [Phage-3914]: the “phage binding ELISA signal, Anti-PSMA Fab in the presence of PSMA” value in the experiment with PSMA Fab (006 PSMA Fab) [1] amounted to 0.0693. Also, the “Phage binding ELISA signal, Anti-PSMA Fab” value with PSMA Fab (006 PSMA Fab) [2] is 1.02.

Consider QNFHCVPQWMCDWL [Phage-3913], for which, in the experiment with PSMA Fab (006 PSMA Fab) [1], the “phage binding ELISA signal, Anti-PSMA Fab in the presence of PSMA” value was determined as 0.0986. Also, the “Phage binding ELISA signal, Anti-PSMA Fab” value with PSMA Fab (006 PSMA Fab) [2] came to 1.02.

STTLCRPAWMCTGM [Phage-3916]: the “phage binding ELISA signal, Anti-PSMA Fab in the presence of PSMA” value with PSMA Fab (006 PSMA Fab) [1] stood at 0.0655. Further, the “Phage binding ELISA signal, Anti-PSMA Fab” value in the experiment with PSMA Fab (006 PSMA Fab) [2] is 1.02.

As to IEAQCRPVWMCHGF [Phage-3923], the “phage binding ELISA signal, Anti-PSMA Fab in the presence of PSMA” value with PSMA Fab (006 PSMA Fab) [1] was found to be 0.0779. Besides, in the experiment with PSMA Fab (006 PSMA Fab) [2], the “Phage binding ELISA signal, Anti-PSMA Fab” value was determined as 0.978.

Take DRVLCTPTWMCEGF [Phage-3917]: in the experiment with PSMA Fab (006 PSMA Fab) [1], the “phage binding ELISA signal, Anti-PSMA Fab in the presence of PSMA” value came to 0.0642. Besides, the “Phage binding ELISA signal, Anti-PSMA Fab” value with PSMA Fab (006 PSMA Fab) [2] was determined as 1.01.
